Source: US20050032064

Target: PPAR GAMMA (Mus musculus) (UniProt P37238)
Assay: cell_activity
Settings: HepG2 per text (Cos per legend); induction vs empty pSG5; amplified by rosiglitazone

(Rev-DR2)x2 SV40 promoter luciferase reporter
activity: 2.5 fold
